Laboratory results from IntAct's records for PubMed 22615398.

B1: Geminin (Homo sapiens), O75496 (parent)
chain: MNPSMKQKQEEIKENIKNSSVPRRTLKMIQPSASGSLVGRENELSAGLSKRKHRNDHLTSTTSSPGVIVPESSENKNLGGVTQESFDLMIKENPSSQYWKEVAEKRRKALYEALKENEKLHKEIEQKDNEIARLKKENKELAEVAEHVQYMAELIERLNGEPLDNFESLDNQEFDSEEETVEDSLVEDSEIGTCAEGTVSSSTDAKPCI

Variants of: B1
Conditions: with hxc9_human HOXC9, P31274
Sequence of hxc9_human HOXC9, P31274 (P31274 whole entry): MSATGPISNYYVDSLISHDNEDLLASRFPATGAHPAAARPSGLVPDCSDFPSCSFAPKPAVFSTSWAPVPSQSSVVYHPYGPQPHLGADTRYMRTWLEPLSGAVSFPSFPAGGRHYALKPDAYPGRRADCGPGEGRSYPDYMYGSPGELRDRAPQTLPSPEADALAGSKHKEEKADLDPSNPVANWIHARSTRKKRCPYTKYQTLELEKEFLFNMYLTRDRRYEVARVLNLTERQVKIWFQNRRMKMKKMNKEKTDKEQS

Row | Variant | effect of a mutation on the interaction
1 | MNPSMKQKQEEIKENIKNSSVPRRTLKMIQPSASGSLVGRENELSAGLSKRKHRNDHLTSTTSSPGVIVPESSENKNLGGVTQESFDLMIKENPSSQYWKEVAEKRRKALYEALKENEKLHKEIEQKDNEIARLKKENKELAEVAEHVQYMAELIERLNGEPLDNFESLDNQEFDSQQQTVEDSLVEDSEIGTCAEGTVSSSTDAKPCI [E177Q;E178Q;E179Q] | decreasing interaction strength
2 | MNPSMKQKQEEIKENIKNSSVPRRTLKMIQPSASGSLVGRENELSAGLSKRKHRNDHLTSTTSSPGVIVPESSENKNLGGVTQESFDLMIKENPSSQYWKEVAEKRRKALYEALKENEKLHKEIEQKDNEIARLKKENKELAEVAEHVQYMAELIERLNGEPLDNFESLDNQEFDSQQQTVQDSLVQNSEIGTCAEGTVSSSTDAKPCI [E177Q;E178Q;E179Q;E182Q;E187Q;D188N] | decreasing interaction strength
3 | MNPSMKQKQEEIKENIKNSSVPRRTLKMIQPSASGSLVGRENELSAGLSKRKHRNDHLTSTTSSPGVIVPESSENKNLGGVTQESFDLMIKENPSSQYWKEVAEKRRKALYEALKENEKLHKEIEQKDNEIARLKKENKELAEVAEHVQYMAELIERLNGEPLDNFESLDNQEFDSEEETAQNSLVEDSEIGTCAEGTVSSSTDAKPCI [V181A;E182Q;D183N] | decreasing interaction strength
4 | MNPSMKQKQEEIKENIKNSSVPRRTLKMIQPSASGSLVGRENELSAGLSKRKHRNDHLTSTTSSPGVIVPESSENKNLGGVTQESFDLMIKENPSSQYWKEVAEKRRKALYEALKENEKLHKEIEQKDNEIARLKKENKELAEVAEHVQYMAELIERLNGEPLDNFESLDNQEFDSEEETVEDELVEDSEIGTCAEGTVSSSTDAKPCI [S184E] | increasing interaction strength
5 | MNPSMKQKQEEIKENIKNSSVPRRTLKMIQPSASGSLVGRENELSAGLSKRKHRNDHLTSTTSSPGVIVPESSENKNLGGVTQESFDLMIKENPSSQYWKEVAEKRRKALYEALKENEKLHKEIEQKDNEIARLKKENKELAEVAEHVQYMAELIERLNGEPLDNFESLDNQEFDSEEETVEDSLAQNSEIGTCAEGTVSSSTDAKPCI [V186A;E187Q;D188N] | decreasing interaction strength
